Results published in patent publication US20170119864A1, “SACCHARIDE VACCINE FORMULATION” (GLAXOSMITHKLINE BIOLOGICALS S.A., priority 2013, published 2017).

How the values were obtained:
[1] = RP-HPLC MAG-Tn3 content before and after 0.2 μm filtration; type: physicochemical; details: L-arginine-L-arginine-mono-hydrochloride buffer system
Protocol: RP-HPLC was performed to assess MAG-Tn3 content in the formulations before and after filtration with a 0.2 μm syringe filter. A Waters 2996 HPLC equipped with UV detection was used with a Poros R 1/10 column from Applied Biosciences and a 0-100% acetonitrile in 0.1% triflouroacetic acid gradient. Size-exclusion chromatography was performed using a Waters 2996 HPLC equipped with a fluorescence detector (Waters) to assess the aggregation profiles of the resulting formulations using a TSKgel G3000PWxl column (Tosoh Bioscience LLC) and a mobile phase of 200 mM NaCl. SDS-PAGE analysis was done using 4-12% Bis-Tris gels (Invitrogen) and MES running buffer (Invitrogen). The gels were stained using Invitrogen's SilverQuest. Centrifuged and non-centrifuged samples were run on gel to assess the presence of precipitate in the formulations. Centrifugation was performed for 15 minutes at 18 000 g. […]
RP-HPLC was performed to assess MAG-Tn3 content in the formulations before and after filtration with a 0.2 μm syringe filter. […] Size-exclusion chromatography was performed using a Waters 2996 HPLC equipped with a fluorescence detector (Waters) to assess the aggregation profiles of the resulting formulations using a TSKgel G3000PWxl column (Tosoh Bioscience LLC) and a mobile phase of 200 mM NaCl. […]

[2] = value used in equation 1; cited from earlier work

Row | SMILES | dose up to which MAG-Tn3 appears soluble ([1]; with CpG7909) [μg/dose] | solubility ([1]; with CpG7909, final reconstituted vaccine, read-out: concentration up to which MAG-Tn3 appears soluble) [mg/mL] | pKa [2]
1 | CC[C@H](C)[C@H](NC(=O)CNC(=O)[C@@H](NC(=O)[C@H](Cc1ccccc1)NC(=O)[C@H](CCCCN)NC(=O)[C@H](CO)NC(=O)[C@H](CC(N)=O)NC(=O)[C@H](C)NC(=O)[C@H](CCCCN)NC(=O)[C@@H](NC(=O)[C@H](Cc1ccc(O)cc1)NC(=O)[C@H](CCC(N)=O)NC(=O)C(NC(=O)C(NC(=O)C(N)CO[C@H]1O[C@H](CO)[C@H](O)[C@H](O)[C@H]1NC(C)=O)C(C)O[C@H]1O[C@H](CO)[C@H](O)[C@H](O)[C@H]1NC(C)=O)C(C)O[C@H]1O[C@H](CO)[C@H](O)[C@H](O)[C@H]1NC(C)=O)[C@@H](C)CC)[C@@H](C)CC)C(=O)N[C@H](C(=O)N[C@@H](CCC(=O)O)C(=O)N[C@@H](CC(C)C)C(=O)NCCCC[C@H](NC(=O)[C@H](CC(C)C)NC(=O)[C@H](CCC(=O)O)NC(=O)[C@@H](NC(=O)[C@@H](NC(=O)CNC(=O)[C@@H](NC(=O)[C@H](Cc1ccccc1)NC(=O)[C@H](CCCCN)NC(=O)[C@H](CO)NC(=O)[C@H](CC(N)=O)NC(=O)[C@H](C)NC(=O)[C@H](CCCCN)NC(=O)[C@@H](NC(=O)[C@H](Cc1ccc(O)cc1)NC(=O)[C@H](CCC(N)=O)NC(=O)C(NC(=O)C(NC(=O)C(N)CO[C@H]1O[C@H](CO)[C@H](O)[C@H](O)[C@H]1NC(C)=O)C(C)O[C@H]1O[C@H](CO)[C@H](O)[C@H](O)[C@H]1NC(C)=O)C(C)O[C@H]1O[C@H](CO)[C@H](O)[C@H](O)[C@H]1NC(C)=O)[C@@H](C)CC)[C@@H](C)CC)[C@@H](C)CC)[C@@H](C)O)C(=O)NCCCC[C@H](NC(=O)[C@H](CCCCNC(=O)[C@H](CC(C)C)NC(=O)[C@H](CCC(=O)O)NC(=O)[C@@H](NC(=O)[C@@H](NC(=O)CNC(=O)[C@@H](NC(=O)[C@H](Cc1ccccc1)NC(=O)[C@H](CCCCN)NC(=O)[C@H](CO)NC(=O)[C@H](CC(N)=O)NC(=O)[C@H](C)NC(=O)[C@H](CCCCN)NC(=O)[C@@H](NC(=O)[C@H](Cc1ccc(O)cc1)NC(=O)[C@H](CCC(N)=O)NC(=O)C(NC(=O)C(NC(=O)C(N)CO[C@H]1O[C@H](CO)[C@H](O)[C@H](O)[C@H]1NC(C)=O)C(C)O[C@H]1O[C@H](CO)[C@H](O)[C@H](O)[C@H]1NC(C)=O)C(C)O[C@H]1O[C@H](CO)[C@H](O)[C@H](O)[C@H]1NC(C)=O)[C@@H](C)CC)[C@@H](C)CC)[C@@H](C)CC)[C@@H](C)O)NC(=O)[C@H](CC(C)C)NC(=O)[C@H](CCC(=O)O)NC(=O)[C@@H](NC(=O)[C@@H](NC(=O)CNC(=O)[C@@H](NC(=O)[C@H](Cc1ccccc1)NC(=O)[C@H](CCCCN)NC(=O)[C@H](CO)NC(=O)[C@H](CC(N)=O)NC(=O)[C@H](C)NC(=O)[C@H](CCCCN)NC(=O)[C@@H](NC(=O)[C@H](Cc1ccc(O)cc1)NC(=O)[C@H](CCC(N)=O)NC(=O)C(NC(=O)C(NC(=O)C(N)CO[C@H]1O[C@H](CO)[C@H](O)[C@H](O)[C@H]1NC(C)=O)C(C)O[C@H]1O[C@H](CO)[C@H](O)[C@H](O)[C@H]1NC(C)=O)C(C)O[C@H]1O[C@H](CO)[C@H](O)[C@H](O)[C@H]1NC(C)=O)[C@@H](C)CC)[C@@H](C)CC)[C@@H](C)CC)[C@@H](C)O)C(=O)NCCC(=O)O)[C@@H](C)O (stereo partly drawn) [MAG-Tn3] | ≤ 450 | ≤ 0.9 | 
2 | N=C(N)NCCC[C@H](N)C(=O)O [Arginine] |  |  | molar ratios of Arg:ArgHCl (Arg pKa = 8.991).
